# Measurements as given in the supplement of paper PMC9112550, “Optimization of the antimicrobial peptide Bac7 by deep mutational scanning” (BMC Biology, 2022).
# Test system: Escherichia coli TOP10
# Experiment: shrunken log2 fold change of peptide-encoding DNA abundance (4.5 h post-induction vs induction); higher = less antimicrobial activity (less host growth inhibition)
# Conditions: time post-induction: 4.5 h; library: site-saturation at positions 5, 18, 19, 20
# 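Further: peptides expressed intracellularly from a pBAD plasmid library in pooled LB shake-flask culture, induced with 0.3% L-arabinose, DNA abundance read by NGS, three biological replicates, DESeq2 with apeglm shrinkage.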
row,Sequence,shrunken log2 fold change
1,RRIRMRPPRLPRPRPRPINKPRP,-0.375
2,RRIRHRPPRLPRPRPRPLFEPRP,-0.135
3,RRIRERPPRLPRPRPRPFSFPRP,0.122
4,RRIRKRPPRLPRPRPRPKNVPRP,0.0773
5,RRIRVRPPRLPRPRPRPQTIPRP,-0.127
6,RRIRPRPPRLPRPRPRPVFLPRP,-0.128
7,RRIRTRPPRLPRPRPRPIMAPRP,-0.281
8,RRIRCRPPRLPRPRPRPFVQPRP,-0.86
9,RRIRYRPPRLPRPRPRPCMTPRP,-0.34
10,RRIRARPPRLPRPRPRPRDKPRP,0.442
11,RRIRMRPPRLPRPRPRPESRPRP,2.68
12,RRIRERPPRLPRPRPRPNDDPRP,-0.121
13,RRIRVRPPRLPRPRPRPPMMPRP,-0.0474
14,RRIRARPPRLPRPRPRPMDSPRP,-0.104
15,RRIRGRPPRLPRPRPRPHCIPRP,-0.0261
16,RRIRGRPPRLPRPRPRPWRWPRP,0.656
17,RRIRQRPPRLPRPRPRPTMNPRP,-0.298
18,RRIRPRPPRLPRPRPRPPNTPRP,0.179
19,RRIRYRPPRLPRPRPRPYPFPRP,-0.0218
20,RRIRKRPPRLPRPRPRPPWGPRP,0.501
21,RRIRLRPPRLPRPRPRPTDRPRP,-0.00223
22,RRIRQRPPRLPRPRPRPNMYPRP,-0.433
23,RRIRYRPPRLPRPRPRPGVQPRP,0.0651
24,RRIRVRPPRLPRPRPRPMANPRP,0.146
25,RRIRVRPPRLPRPRPRPKLEPRP,0.09

row,Sequence,shrunken log2 fold change
1,RRIRDRPPRLPRPRPRPWRGPRP,0.196
2,RRIRPRPPRLPRPRPRPDMKPRP,-0.417
3,RRIRFRPPRLPRPRPRPGRKPRP,0.107
4,RRIRPRPPRLPRPRPRPSSGPRP,-0.494
5,RRIRTRPPRLPRPRPRPSTSPRP,-0.239
6,RRIRFRPPRLPRPRPRPTCYPRP,-0.23
7,RRIRCRPPRLPRPRPRPPLIPRP,-0.000572
8,RRIRSRPPRLPRPRPRPKQAPRP,-0.0378
9,RRIRMRPPRLPRPRPRPQCPPRP,-0.181
10,RRIRWRPPRLPRPRPRPGRAPRP,0.71
11,RRIRDRPPRLPRPRPRPWVDPRP,-0.0979
12,RRIRSRPPRLPRPRPRPPASPRP,0.694
13,RRIRARPPRLPRPRPRPSPIPRP,-0.0445
14,RRIRARPPRLPRPRPRPATLPRP,0.34
15,RRIRTRPPRLPRPRPRPIVIPRP,-0.054
16,RRIRQRPPRLPRPRPRPPMGPRP,0.187
17,RRIRLRPPRLPRPRPRPQAIPRP,-0.152
18,RRIRARPPRLPRPRPRPMINPRP,-0.0176
19,RRIRMRPPRLPRPRPRPRCFPRP,0.397
20,RRIRQRPPRLPRPRPRPYWKPRP,0.000139
21,RRIRMRPPRLPRPRPRPPQPPRP,1.37
22,RRIRTRPPRLPRPRPRPACDPRP,0.139
23,RRIRFRPPRLPRPRPRPEFWPRP,0.264
24,RRIRFRPPRLPRPRPRPRHHPRP,-0.116
25,RRIRQRPPRLPRPRPRPAVNPRP,-0.0181

row,Sequence,shrunken log2 fold change
1,RRIRNRPPRLPRPRPRPKCRPRP,0.0642
2,RRIRRRPPRLPRPRPRPMDGPRP,0.0167
3,RRIRWRPPRLPRPRPRPCLKPRP,0.0308
4,RRIRYRPPRLPRPRPRPYYCPRP,0.00489
5,RRIRERPPRLPRPRPRPFHFPRP,-0.787
6,RRIRFRPPRLPRPRPRPFIIPRP,-0.816
7,RRIRFRPPRLPRPRPRPSFVPRP,-0.828
8,RRIRVRPPRLPRPRPRPEHPPRP,0.0168
9,RRIRQRPPRLPRPRPRPYFAPRP,-0.292
10,RRIRMRPPRLPRPRPRPSTTPRP,0.352
11,RRIRCRPPRLPRPRPRPKKLPRP,0.063
12,RRIRMRPPRLPRPRPRPNPQPRP,0.279
13,RRIRTRPPRLPRPRPRPHLAPRP,0.159
14,RRIRWRPPRLPRPRPRPIFMPRP,-0.0259
15,RRIRCRPPRLPRPRPRPHPAPRP,0.34
16,RRIRWRPPRLPRPRPRPIAPPRP,0.45
17,RRIRFRPPRLPRPRPRPDDCPRP,0.014
18,RRIRDRPPRLPRPRPRPIDIPRP,-0.0169
19,RRIRTRPPRLPRPRPRPVDKPRP,-0.362
20,RRIRWRPPRLPRPRPRPMQIPRP,0.0922
21,RRIRCRPPRLPRPRPRPAMIPRP,0.111
22,RRIRMRPPRLPRPRPRPGIQPRP,-0.105
23,RRIRNRPPRLPRPRPRPETVPRP,-0.00716
24,RRIRIRPPRLPRPRPRPYHKPRP,-0.165
25,RRIRTRPPRLPRPRPRPHGYPRP,-0.267

row,Sequence,shrunken log2 fold change
1,RRIRMRPPRLPRPRPRPKRDPRP,1.15
2,RRIRNRPPRLPRPRPRPYTFPRP,-0.0167
3,RRIRWRPPRLPRPRPRPEYVPRP,0.214
4,RRIRFRPPRLPRPRPRPGPKPRP,0.066
5,RRIRPRPPRLPRPRPRPHKAPRP,0.0705
6,RRIRMRPPRLPRPRPRPCHVPRP,-0.0132
7,RRIRERPPRLPRPRPRPPYWPRP,0.0536
8,RRIRVRPPRLPRPRPRPIHPPRP,0.0943
9,RRIRHRPPRLPRPRPRPTFRPRP,0.0997
10,RRIRQRPPRLPRPRPRPYRDPRP,-0.204
11,RRIRPRPPRLPRPRPRPAPFPRP,0.143
12,RRIRGRPPRLPRPRPRPKLFPRP,0.75
13,RRIRLRPPRLPRPRPRPQVVPRP,-0.252
14,RRIRARPPRLPRPRPRPSDIPRP,-0.0794
15,RRIRNRPPRLPRPRPRPRFNPRP,-0.766
16,RRIRCRPPRLPRPRPRPVQQPRP,0.148
17,RRIRFRPPRLPRPRPRPQGYPRP,-0.249
18,RRIRDRPPRLPRPRPRPRHEPRP,-0.000978
19,RRIRFRPPRLPRPRPRPCYDPRP,-0.0301
20,RRIRQRPPRLPRPRPRPMWGPRP,-0.263
21,RRIRTRPPRLPRPRPRPQQLPRP,1.75
22,RRIRWRPPRLPRPRPRPHNRPRP,-0.205
23,RRIRGRPPRLPRPRPRPGRYPRP,-0.378
24,RRIRCRPPRLPRPRPRPSDLPRP,-0.0943
25,RRIRLRPPRLPRPRPRPGKVPRP,-0.0116

row,Sequence,shrunken log2 fold change
1,RRIRCRPPRLPRPRPRPISQPRP,-0.544
2,RRIRIRPPRLPRPRPRPKRHPRP,-0.0187
3,RRIRRRPPRLPRPRPRPMQMPRP,0.54
4,RRIRKRPPRLPRPRPRPPRTPRP,0.829
5,RRIRIRPPRLPRPRPRPCSKPRP,-0.267
6,RRIRHRPPRLPRPRPRPRLQPRP,0.0915
7,RRIRFRPPRLPRPRPRPVPAPRP,0.217
8,RRIRERPPRLPRPRPRPFRIPRP,-0.367
9,RRIRARPPRLPRPRPRPFVAPRP,0.254
10,RRIRKRPPRLPRPRPRPMNGPRP,-0.0531
11,RRIRDRPPRLPRPRPRPYTNPRP,-0.647
12,RRIRFRPPRLPRPRPRPNCRPRP,0.0638
13,RRIRARPPRLPRPRPRPMFMPRP,0.749
14,RRIRRRPPRLPRPRPRPLSTPRP,0.021
15,RRIRWRPPRLPRPRPRPLMVPRP,-0.0319
16,RRIRMRPPRLPRPRPRPTEMPRP,0.14
17,RRIRVRPPRLPRPRPRPECTPRP,0.464
18,RRIRQRPPRLPRPRPRPCMHPRP,-0.0431
19,RRIRQRPPRLPRPRPRPVMWPRP,0.448
20,RRIRCRPPRLPRPRPRPHVGPRP,0.0562
21,RRIRGRPPRLPRPRPRPWNKPRP,-0.306
22,RRIRLRPPRLPRPRPRPNYVPRP,-0.566
23,RRIRFRPPRLPRPRPRPSIVPRP,-0.663
24,RRIRWRPPRLPRPRPRPWLWPRP,0.242
25,RRIRERPPRLPRPRPRPQGNPRP,-0.166

row,Sequence,shrunken log2 fold change
1,RRIRQRPPRLPRPRPRPIMLPRP,-0.433
2,RRIRLRPPRLPRPRPRPMSWPRP,0.0708
3,RRIRGRPPRLPRPRPRPFVKPRP,-0.419
4,RRIRSRPPRLPRPRPRPMNGPRP,-0.205
5,RRIRSRPPRLPRPRPRPMIVPRP,-0.377
6,RRIRQRPPRLPRPRPRPPSSPRP,0.0251
7,RRIRIRPPRLPRPRPRPFVTPRP,-0.938
8,RRIRIRPPRLPRPRPRPKFIPRP,-0.375
9,RRIRARPPRLPRPRPRPHCKPRP,0.0852
10,RRIRERPPRLPRPRPRPSWLPRP,0.177
11,RRIRFRPPRLPRPRPRPNDTPRP,-0.179
12,RRIRSRPPRLPRPRPRPSEDPRP,-0.325
13,RRIRWRPPRLPRPRPRPIVVPRP,-0.0496
14,RRIRTRPPRLPRPRPRPADDPRP,0.165
15,RRIRKRPPRLPRPRPRPDREPRP,0.186
16,RRIRRRPPRLPRPRPRPLKYPRP,0.0102
17,RRIRRRPPRLPRPRPRPYWIPRP,-0.918
18,RRIRPRPPRLPRPRPRPNFKPRP,-0.225
19,RRIRQRPPRLPRPRPRPMKEPRP,-0.0272
20,RRIRPRPPRLPRPRPRPDFEPRP,-0.235
21,RRIRARPPRLPRPRPRPMPPPRP,0.3
22,RRIRWRPPRLPRPRPRPQMEPRP,0.0344
23,RRIRNRPPRLPRPRPRPWMAPRP,-0.28
24,RRIRSRPPRLPRPRPRPDDEPRP,0.0222
25,RRIRRRPPRLPRPRPRPPETPRP,0.831
